Laboratory results from patent US20160304570A1.
Non-standard residues stand in square brackets, D forms with d. Groups on a side chain read outwards from the residue. Primed or numbered codes have the meaning given here. No end group written: not given here. *: point of attachment. X2 = ((2-hydroxyethyl)thio)acetamide, O=C(CSCCO)*; PEG11′ = not defined here; 4‑Pen = not defined here; Pra = C#CC[C@H](N)C(=O)O; Nva = CCC[C@H](N)C(=O)O; Abu = CC[C@H](N)C(=O)O; Atz = not defined here

Columns and labels:
Experiment in all cases: cell-based or functional assay
[1] = target: human voltage-gated sodium channel Nav1.3 (human) (UniProt Q9NY46)
human voltage-gated sodium channel Nav1.3 (human), sequence (Q9NY46 whole entry): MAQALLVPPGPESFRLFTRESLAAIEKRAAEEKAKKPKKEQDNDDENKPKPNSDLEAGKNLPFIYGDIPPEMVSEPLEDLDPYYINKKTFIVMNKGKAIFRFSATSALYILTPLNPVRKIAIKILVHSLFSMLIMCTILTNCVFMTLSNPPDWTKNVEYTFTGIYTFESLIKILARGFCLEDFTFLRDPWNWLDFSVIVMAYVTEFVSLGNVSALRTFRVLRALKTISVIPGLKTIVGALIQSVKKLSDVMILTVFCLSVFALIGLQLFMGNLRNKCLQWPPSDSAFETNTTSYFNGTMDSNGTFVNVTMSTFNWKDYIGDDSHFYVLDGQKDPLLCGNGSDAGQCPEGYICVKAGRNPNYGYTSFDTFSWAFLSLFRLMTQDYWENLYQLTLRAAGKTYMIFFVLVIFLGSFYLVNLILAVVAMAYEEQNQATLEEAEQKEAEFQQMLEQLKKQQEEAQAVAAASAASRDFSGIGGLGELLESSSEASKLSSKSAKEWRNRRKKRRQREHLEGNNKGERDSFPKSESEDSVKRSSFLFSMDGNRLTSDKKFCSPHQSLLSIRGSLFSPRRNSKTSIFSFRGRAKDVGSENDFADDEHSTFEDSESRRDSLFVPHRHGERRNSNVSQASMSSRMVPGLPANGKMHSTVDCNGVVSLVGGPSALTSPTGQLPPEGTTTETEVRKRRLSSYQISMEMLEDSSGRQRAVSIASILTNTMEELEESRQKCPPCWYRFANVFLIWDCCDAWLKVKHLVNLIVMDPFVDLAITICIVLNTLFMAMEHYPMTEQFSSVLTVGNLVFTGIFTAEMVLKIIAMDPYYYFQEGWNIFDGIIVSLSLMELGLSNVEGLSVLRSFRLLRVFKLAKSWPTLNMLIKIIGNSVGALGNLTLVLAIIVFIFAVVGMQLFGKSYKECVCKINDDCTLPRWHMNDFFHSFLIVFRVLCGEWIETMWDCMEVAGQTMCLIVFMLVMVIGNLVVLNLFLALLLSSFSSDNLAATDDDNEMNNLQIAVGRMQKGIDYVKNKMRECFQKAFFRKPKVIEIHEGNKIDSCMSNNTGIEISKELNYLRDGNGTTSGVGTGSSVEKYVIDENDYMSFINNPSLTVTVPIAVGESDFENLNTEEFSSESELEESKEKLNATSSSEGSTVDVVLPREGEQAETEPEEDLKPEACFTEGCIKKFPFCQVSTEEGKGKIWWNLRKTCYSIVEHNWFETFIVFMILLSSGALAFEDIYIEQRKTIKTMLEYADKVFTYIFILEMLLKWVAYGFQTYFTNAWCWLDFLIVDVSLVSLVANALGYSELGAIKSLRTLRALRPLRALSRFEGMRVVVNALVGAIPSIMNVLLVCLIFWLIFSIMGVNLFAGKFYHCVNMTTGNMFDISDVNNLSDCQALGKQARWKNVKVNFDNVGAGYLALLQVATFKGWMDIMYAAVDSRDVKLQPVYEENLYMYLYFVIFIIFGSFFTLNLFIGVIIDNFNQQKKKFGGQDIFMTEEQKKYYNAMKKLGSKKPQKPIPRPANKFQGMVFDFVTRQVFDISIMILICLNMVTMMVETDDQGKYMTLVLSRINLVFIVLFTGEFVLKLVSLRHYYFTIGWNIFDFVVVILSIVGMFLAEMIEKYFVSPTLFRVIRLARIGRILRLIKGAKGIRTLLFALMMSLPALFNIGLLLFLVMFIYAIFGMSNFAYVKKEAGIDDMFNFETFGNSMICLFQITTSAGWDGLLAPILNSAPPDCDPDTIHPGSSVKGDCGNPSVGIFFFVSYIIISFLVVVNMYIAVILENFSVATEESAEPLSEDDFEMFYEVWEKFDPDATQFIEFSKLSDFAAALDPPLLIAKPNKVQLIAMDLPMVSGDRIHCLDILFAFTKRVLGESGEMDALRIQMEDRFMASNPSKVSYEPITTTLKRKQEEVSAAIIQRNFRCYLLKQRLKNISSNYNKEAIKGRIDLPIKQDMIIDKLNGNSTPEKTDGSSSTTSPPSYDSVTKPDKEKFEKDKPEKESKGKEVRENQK

[2] = target: human Nav1.7 voltage-gated sodium channel (human) (UniProt Q15858)
human Nav1.7 voltage-gated sodium channel (human), sequence (Q15858 whole entry): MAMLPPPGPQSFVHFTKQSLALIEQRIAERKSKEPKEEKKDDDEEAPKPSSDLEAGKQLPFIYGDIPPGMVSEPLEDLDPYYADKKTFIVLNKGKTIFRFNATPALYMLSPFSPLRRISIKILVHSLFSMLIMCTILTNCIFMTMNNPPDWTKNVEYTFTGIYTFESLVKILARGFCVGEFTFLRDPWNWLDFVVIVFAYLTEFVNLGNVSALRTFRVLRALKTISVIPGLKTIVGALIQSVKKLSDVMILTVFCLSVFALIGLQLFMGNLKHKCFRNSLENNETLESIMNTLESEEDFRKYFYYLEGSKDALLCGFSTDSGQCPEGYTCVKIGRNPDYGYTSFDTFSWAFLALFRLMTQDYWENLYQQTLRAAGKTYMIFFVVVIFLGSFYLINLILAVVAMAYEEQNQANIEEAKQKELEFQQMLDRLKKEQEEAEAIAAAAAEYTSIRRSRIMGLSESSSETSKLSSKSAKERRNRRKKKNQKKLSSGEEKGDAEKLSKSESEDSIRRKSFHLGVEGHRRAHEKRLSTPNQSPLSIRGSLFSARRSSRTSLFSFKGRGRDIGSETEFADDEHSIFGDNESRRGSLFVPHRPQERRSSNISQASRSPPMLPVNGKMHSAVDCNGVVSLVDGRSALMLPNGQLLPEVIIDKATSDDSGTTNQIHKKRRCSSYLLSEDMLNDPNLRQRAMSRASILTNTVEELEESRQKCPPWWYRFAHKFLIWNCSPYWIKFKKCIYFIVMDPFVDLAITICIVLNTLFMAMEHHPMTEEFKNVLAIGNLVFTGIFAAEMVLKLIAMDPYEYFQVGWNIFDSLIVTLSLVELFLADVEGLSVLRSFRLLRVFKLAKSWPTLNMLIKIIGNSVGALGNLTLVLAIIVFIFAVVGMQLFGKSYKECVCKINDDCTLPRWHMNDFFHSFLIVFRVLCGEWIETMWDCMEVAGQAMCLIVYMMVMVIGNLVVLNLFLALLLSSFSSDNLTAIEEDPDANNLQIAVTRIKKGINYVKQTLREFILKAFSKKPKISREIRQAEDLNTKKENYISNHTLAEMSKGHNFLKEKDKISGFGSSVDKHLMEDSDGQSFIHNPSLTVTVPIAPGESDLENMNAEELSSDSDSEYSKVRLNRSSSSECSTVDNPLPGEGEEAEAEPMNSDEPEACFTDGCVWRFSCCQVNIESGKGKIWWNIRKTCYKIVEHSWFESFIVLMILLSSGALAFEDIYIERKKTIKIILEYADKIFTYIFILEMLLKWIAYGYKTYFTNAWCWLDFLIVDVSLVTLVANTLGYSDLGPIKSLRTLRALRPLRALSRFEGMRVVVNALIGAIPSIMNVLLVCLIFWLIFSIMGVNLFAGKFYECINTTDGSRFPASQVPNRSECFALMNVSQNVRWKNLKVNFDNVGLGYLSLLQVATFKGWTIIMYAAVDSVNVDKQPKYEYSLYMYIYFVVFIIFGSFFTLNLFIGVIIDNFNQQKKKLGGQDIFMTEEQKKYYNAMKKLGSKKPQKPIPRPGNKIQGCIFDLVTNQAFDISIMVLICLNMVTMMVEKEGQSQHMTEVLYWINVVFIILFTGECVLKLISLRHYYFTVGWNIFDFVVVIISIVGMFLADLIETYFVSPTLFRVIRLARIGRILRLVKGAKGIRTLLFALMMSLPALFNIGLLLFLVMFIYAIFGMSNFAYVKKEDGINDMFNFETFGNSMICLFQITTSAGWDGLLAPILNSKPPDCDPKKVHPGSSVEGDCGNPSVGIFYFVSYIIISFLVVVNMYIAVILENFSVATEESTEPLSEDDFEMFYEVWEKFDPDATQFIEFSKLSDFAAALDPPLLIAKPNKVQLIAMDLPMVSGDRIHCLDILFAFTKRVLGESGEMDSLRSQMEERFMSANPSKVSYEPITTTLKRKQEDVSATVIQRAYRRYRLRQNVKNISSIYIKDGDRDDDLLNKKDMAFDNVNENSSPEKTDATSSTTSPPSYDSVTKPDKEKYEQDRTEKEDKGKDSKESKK

[3] = target: human Nav1.5 voltage-gated sodium channel (human) (UniProt Q14524)
[4] = target: human Nav1.4 voltage-gated sodium channel (human) (UniProt P35499)
[5] = target: human Nav1.3 voltage-gated sodium channel (human) (UniProt Q9NY46)
human Nav1.3 voltage-gated sodium channel (human), sequence (Q9NY46 whole entry): as the sequence (Q9NY46 whole entry) above

[6] = target: human voltage-gated sodium channel Nav1.7 (human) (UniProt Q15858)
human voltage-gated sodium channel Nav1.7 (human), sequence (Q15858 whole entry): as the sequence (Q15858 whole entry) above

[7] = target: human voltage-gated sodium channel Nav1.5 (human) (UniProt Q14524)
[8] = target: human voltage-gated sodium channel Nav1.4 (human) (UniProt P35499)

Molecule: [Ala5;Phe6;Ile13;Arg28]GpTx-1(1-34)-FreeAcid (peptide)
- IWQ Use Nav1.3 IC50 [1]: 3 µM

Molecule: [Ala5;Phe6;K(Ac-Pra)13;Arg28]GpTx-1(1-34) (peptide)
- IWQ Use Nav1.7 IC50 (IonWorks Quattro electrophysiology) [2]: 0.78 µM
- IWQ Use Nav1.5 IC50 (IonWorks Quattro electrophysiology) [3]: 24.6 µM
- IWQ Use Nav1.4 IC50 (IonWorks Quattro electrophysiology) [4]: 18 µM
- IWQ Use Nav1.3 IC50 (IonWorks Quattro electrophysiology) [5]: 0.25 µM

Molecule: [Ala5;Phe6;Leu13;Arg28]GpTx-1(1-34)-FreeAcid (peptide)
- IWQ Use Nav1.3 IC50 [1]: 4.5 µM
- IWQ Use Nav1.7 IC50 [6]: 4.5 µM

Molecule: [Ala5;Phe6;Lys13;Arg28]GpTx-1(1-34)-FreeAcid (peptide)
- IWQ Use Nav1.3 IC50 [1]: 0.3 µM
- IWQ Use Nav1.7 IC50 [6]: 3.6 µM
- IWQ Use Nav1.5 IC50 [7]: 2.8 µM

Molecule: [Ala5;Phe6;Met13;Arg28]GpTx-1(1-34)-FreeAcid (peptide)
- IWQ Use Nav1.3 IC50 [1]: 0.8 µM
- IWQ Use Nav1.7 IC50 [6]: 4.7 µM

Molecule: [Ala5;Phe6;Pra12;Leu26;Arg28]GpTx-1(1-34) (peptide)
- IWQ Use Nav1.7 IC50 (IonWorks Quattro electrophysiology) [2]: 0.13 µM
- IWQ Use Nav1.5 IC50 (IonWorks Quattro electrophysiology) [3]: 36.5 µM
- IWQ Use Nav1.3 IC50 (IonWorks Quattro electrophysiology) [5]: 0.12 µM

Molecule: [Ala5;Phe6;Pro13;Arg28]GpTx-1(1-34)-FreeAcid (peptide)
- IWQ Use Nav1.3 IC50 [1]: 2.9 µM
- IWQ Use Nav1.7 IC50 [6]: 2.9 µM

Molecule: [Ala5;Phe6;Ser13;Arg28]GpTx-1(1-34)-FreeAcid (peptide)
- IWQ Use Nav1.3 IC50 [1]: 1.1 µM

Molecule: [Ala5;Phe6;Thr13;Arg28]GpTx-1(1-34)-FreeAcid (peptide)
- IWQ Use Nav1.3 IC50 [1]: 1.3 µM

Molecule: [Ala5;Phe6;Val13;Arg28]GpTx-1(1-34)-FreeAcid (peptide)
- IWQ Use Nav1.3 IC50 [1]: 1.7 µM

Molecule: [Nva5;Leu6;K(4-Pen)13;Arg28]GpTx-1(1-34) (peptide)
- IWQ Use Nav1.7 IC50 (IonWorks Quattro electrophysiology) [2]: 0.31 µM
- IWQ Use Nav1.5 IC50 (IonWorks Quattro electrophysiology) [3]: 37.5 µM
- IWQ Use Nav1.3 IC50 (IonWorks Quattro electrophysiology) [5]: 0.27 µM

Molecule: DCLGALRKCEPD[Pra]DKCCRPNLVCSRLHRWCKYVF (ends and bridges not checked) [[Ala5;Leu6,26;Glu10;Pra13;Arg28]GpTx-1(1-34)]
- IWQ Use Nav1.7 IC50 (IonWorks Quattro electrophysiology) [2]: 0.7 µM
- Nav1.4 Use IC50 (µM), electrophysiology by PatchXpress [8]: > 10 µM
- IWQ Use Nav1.5 IC50 (IonWorks Quattro electrophysiology) [3]: > 50 µM
- IWQ Use Nav1.4 IC50 (IonWorks Quattro electrophysiology) [4]: > 50 µM
- Nav1.7 Use IC50 (µM), electrophysiology by PatchXpress [6]: 0.013 µM
- IWQ Use Nav1.3 IC50 (IonWorks Quattro electrophysiology) [5]: 1.4 µM
- Nav1.5 Use IC50 (µM), electrophysiology by PatchXpress [7]: > 10 µM

Molecule: D[Abu]LGALRKCIPDNDKC[Abu]RPNLVCSRTHEWCKYVF (ends and bridges not checked) [[2-Abu2,17;Ala5;Leu6;Glu28]GpTx-1(1-34)]
- IWQ Use Nav1.3 (µM) (IC50, IonWorks Quattro population patch clamp) [1]: > 5 µM
- IWQ Use Nav1.4 (µM) (IC50, IonWorks Quattro population patch clamp) [8]: > 50 µM
- IWQ Use Nav1.7 (µM) (IC50, IonWorks Quattro population patch clamp) [6]: 4.3 µM
- IWQ Use Nav1.5 (µM) (IC50, IonWorks Quattro population patch clamp) [7]: > 50 µM

Molecule: D[Abu]LG[Nva]LRKCIPDNDKC[Abu]RPNLVCSRTHEWCKYVF (ends and bridges not checked) [[2-Abu2,17;Nva5;Leu6;Glu28]GpTx-1(1-34)]
- IWQ Use Nav1.3 (µM) (IC50, IonWorks Quattro population patch clamp) [1]: > 5 µM
- IWQ Use Nav1.4 (µM) (IC50, IonWorks Quattro population patch clamp) [8]: > 50 µM
- IWQ Use Nav1.7 (µM) (IC50, IonWorks Quattro population patch clamp) [6]: > 5 µM
- IWQ Use Nav1.5 (µM) (IC50, IonWorks Quattro population patch clamp) [7]: > 50 µM

Molecule: D[Abu]LGVLRKCIPDNDKC[Abu]RPNLVCSRTHEWCKYVF (ends and bridges not checked) [[2-Abu2,17;Val5;Leu6;Glu28]GpTx-1(1-34)]
- IWQ Use Nav1.3 (µM) (IC50, IonWorks Quattro population patch clamp) [1]: > 5 µM
- IWQ Use Nav1.4 (µM) (IC50, IonWorks Quattro population patch clamp) [8]: > 50 µM
- IWQ Use Nav1.7 (µM) (IC50, IonWorks Quattro population patch clamp) [6]: > 5 µM
- IWQ Use Nav1.5 (µM) (IC50, IonWorks Quattro population patch clamp) [7]: 33 µM

Molecule: D[Abu]LG[Abu]LRKCIPDNDKC[Abu]RPNLVCSRTHEWCKYVF (ends and bridges not checked) [[2-Abu2,5,17;Leu6;Glu28]GpTx-1(1-34)]
- IWQ Use Nav1.3 (µM) (IC50, IonWorks Quattro population patch clamp) [1]: > 5 µM
- IWQ Use Nav1.4 (µM) (IC50, IonWorks Quattro population patch clamp) [8]: > 50 µM
- IWQ Use Nav1.7 (µM) (IC50, IonWorks Quattro population patch clamp) [6]: 4.3 µM
- IWQ Use Nav1.5 (µM) (IC50, IonWorks Quattro population patch clamp) [7]: > 50 µM

Molecule: DCLGALRKCIPDHDKCCRPNLVCSRTHRWCKYVF-OH (ends and bridges not checked) [[Ala5;Leu6;His13;Arg28]GpTx-1(1-34)-FreeAcid]
- IWQ Use Nav1.3 [1]: 3.9 µM
- IWQ Use Nav1.4 [8]: > 5 µM
- IWQ Use Nav1.7 [6]: > 5 µM
- IWQ Use Nav1.5 [7]: > 5 µM

Molecule: DCLG[Abu]LRKCIPDK(4‑Pen)DKCCRPNLVCSRTHEWCKYVF (ends and bridges not checked) [[2-Abu5;Leu6;K(4-Pen)13;Glu28]GpTx-1(1-34)]
- IWQ Use Nav1.7 IC50 (IonWorks Quattro electrophysiology) [2]: 1.8 µM
- IWQ Use Nav1.5 IC50 (IonWorks Quattro electrophysiology) [3]: > 5 µM
- IWQ Use Nav1.4 IC50 (IonWorks Quattro electrophysiology) [4]: > 5 µM
- IWQ Use Nav1.3 IC50 (IonWorks Quattro electrophysiology) [5]: 4.1 µM

B1: [Ala5;Leu6,26;Glu10;Atz(PEG11-((2-hydroxyethyl)thio)acetamide)13;Arg28]GpTx-1(1-34) (peptide)
peptide: DCLGALRKCEPD[Atz]([PEG11′-X2])DKCCRPNLVCSRLHRWCKYVF
modifications: ends and bridges not checked; also: printed as [Ala5;Leu6,26;Glu10;Atz(PEG11-((2-hydroxyethyl)thio)acetamide)13;Arg28]GpTx-1(1-34)
- Nav1.4 Use IC50 (PatchXpress electrophysiology, inhibition of sodium current) [8]: > 10 µM
- Nav1.7 Use IC50 (PatchXpress electrophysiology, inhibition of sodium current) [6]: 0.054 µM
- Nav1.5 Use IC50 (PatchXpress electrophysiology, inhibition of sodium current) [7]: > 10 µM
